Results as given in patent US20110059851A1 (MOUNT SINAI SCHOOL OF MEDICINE OF NEW YORK UNIVERSITY, published 2011).
Residue numbers refer to the chain shown, from its start.

Molecular target: T1, V5-tagged SHOC2^S2G (human SHOC2 Ser2Gly mutant) (human, UniProt Q5RAV5 1-582 (Pongo abelii entry), limits assumed, N-myristoylation at the N-terminal glycine (Gly 2) after excision of the initiator methionine; [3H]myristic acid incorporation shown in Cos-1 cells)
T1 construct: Expressed transiently in Cos-1 cells, with human NMT1 co-transfected, from a V5-tagged human SHOC2 cDNA construct made by site-directed mutagenesis; Tested in cell lysates by co-immunoprecipitation; also called mutant SHOC2; not shown: V5 tag
T1 sequence: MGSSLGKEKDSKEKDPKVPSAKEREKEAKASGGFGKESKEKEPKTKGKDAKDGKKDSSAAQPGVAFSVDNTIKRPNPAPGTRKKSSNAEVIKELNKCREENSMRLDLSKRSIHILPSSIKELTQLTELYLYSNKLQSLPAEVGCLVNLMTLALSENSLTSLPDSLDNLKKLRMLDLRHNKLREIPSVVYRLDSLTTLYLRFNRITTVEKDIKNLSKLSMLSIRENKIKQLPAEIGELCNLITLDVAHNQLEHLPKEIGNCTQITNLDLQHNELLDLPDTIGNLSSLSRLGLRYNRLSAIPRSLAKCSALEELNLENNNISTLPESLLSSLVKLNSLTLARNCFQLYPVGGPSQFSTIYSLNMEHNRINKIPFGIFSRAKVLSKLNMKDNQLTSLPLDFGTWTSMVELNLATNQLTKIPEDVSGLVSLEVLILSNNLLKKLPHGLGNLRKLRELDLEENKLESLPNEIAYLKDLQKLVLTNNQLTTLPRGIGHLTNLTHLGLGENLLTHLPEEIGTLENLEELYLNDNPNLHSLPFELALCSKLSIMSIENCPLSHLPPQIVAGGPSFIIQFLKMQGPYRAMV
Experiment: co-immunoprecipitation (anti-Myc or anti-V5, western blot) and confocal microscopy in COS-1 cells co-transfected with V5- and Myc-tagged proteins

binding result: no binding
B1: Myc-tagged SHOC2^wt (wild-type human SHOC2) (other)
chain: T1 sequence with G2S
notes: Expressed transiently in Cos-1 cells from a Myc-tagged human SHOC2 cDNA construct and tested in cell lysates by co-immunoprecipitation; also called wild type SHOC2; wild-type protein; not shown: Myc tag
